Experimental data: PMC6770577 (2019)
No end group written: not given here. *: point of attachment. FITC = O=C1OC2(c3ccc(O)cc3Oc3cc(O)ccc32)c2ccc(NC(=S)*)cc21

Key:
CaM = CaM (Homo sapiens, UniProt P0DP23); assay: steady-state fluorescence anisotropy
S100A1 = target: T1, S100A1 (Homo sapiens, UniProt P23297); assay: steady-state fluorescence anisotropy
T1 chain: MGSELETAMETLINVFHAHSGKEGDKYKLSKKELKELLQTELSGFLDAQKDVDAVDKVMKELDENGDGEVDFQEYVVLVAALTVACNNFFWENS

{FITC}-LIGRAYRSNYTRKHFR [TRPM6np]
Kd (CaM): 14.9 µM
Kd (S100A1): 17.8 µM
